Assay results as given in doi:10.1101/2022.10.05.511050 (bioRxiv, 2022).
“And” between values parts separate entries of the source, which are not always exact repeats. Equal entries are not always repeated.

Molecular target: HA-tagged NLRC4 (UniProt Q3UP24 1-1024)
Experiment: co-IP

Sequence of HA-tagged NLRC4 (Q3UP24 whole entry): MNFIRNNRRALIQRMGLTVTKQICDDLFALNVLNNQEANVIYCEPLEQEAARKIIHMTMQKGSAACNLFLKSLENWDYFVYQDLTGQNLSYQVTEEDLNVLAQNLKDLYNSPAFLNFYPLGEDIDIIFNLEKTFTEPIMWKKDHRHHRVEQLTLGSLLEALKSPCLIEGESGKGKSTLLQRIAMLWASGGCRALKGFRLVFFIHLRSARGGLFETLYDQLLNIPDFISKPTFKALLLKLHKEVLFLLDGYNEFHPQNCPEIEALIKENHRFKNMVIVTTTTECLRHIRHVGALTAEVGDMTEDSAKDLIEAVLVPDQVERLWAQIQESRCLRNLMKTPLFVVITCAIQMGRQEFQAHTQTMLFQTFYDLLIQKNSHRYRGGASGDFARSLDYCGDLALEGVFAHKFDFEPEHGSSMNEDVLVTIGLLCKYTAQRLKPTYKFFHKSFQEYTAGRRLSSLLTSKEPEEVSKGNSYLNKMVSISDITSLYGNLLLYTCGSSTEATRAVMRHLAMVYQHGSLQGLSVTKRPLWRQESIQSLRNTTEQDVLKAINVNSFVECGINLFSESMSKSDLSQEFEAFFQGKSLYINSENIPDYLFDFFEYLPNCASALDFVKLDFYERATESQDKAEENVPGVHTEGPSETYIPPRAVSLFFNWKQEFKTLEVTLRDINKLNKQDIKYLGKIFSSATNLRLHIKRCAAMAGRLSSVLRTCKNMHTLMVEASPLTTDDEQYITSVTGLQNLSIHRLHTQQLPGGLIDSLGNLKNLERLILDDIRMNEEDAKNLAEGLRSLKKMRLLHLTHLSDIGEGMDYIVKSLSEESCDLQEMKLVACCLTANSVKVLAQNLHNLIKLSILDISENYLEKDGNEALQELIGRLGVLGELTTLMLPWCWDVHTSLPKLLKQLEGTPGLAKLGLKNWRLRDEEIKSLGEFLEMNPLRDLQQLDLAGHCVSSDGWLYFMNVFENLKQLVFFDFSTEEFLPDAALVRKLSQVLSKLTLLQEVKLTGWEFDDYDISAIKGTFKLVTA

stoichiometry N: < 0.05 PELO per NLRC4 and ~0.05 PELO per NLRC4
B1: HA-tagged PELO (natural protein)
chain: MKLVRKDIEKDNAGQVTLVPEEPEDMWHTFNLVQVGDSLRASTIRKVQTESSTGSVGSNRVRTTLTLCVEAIDFDSQACQLRVKGTNIQENEYVKMGAYHTIELEPNRQFTLAKKQWDSVVLERIEQACDPAWSADVAAVVMQEGLAHVCLVTPSMTLTRAKVEVNIPRKRKGNCSQHDRALERFYEQVVQAIQRHINFEVVKCVLVASPGFVREQFCDYMFQQAVKTDNKVLLENRSKFLQVHASSGHKYSLKEALCDPTVASRLSDTKAAGEVKALDDFYKMLQHEPDRAFYGLKQVERANEALAIDTLLISDELFRHQDVATRSRYVRLVDSVKENAGTVRIFSSLHVSGEQLGQLTGVAAILRFPVPELSDQEDDSSSEED
